The values below come from patent US10350264B2, “Compositions and methods for modulating NCOA4-mediated autophagic targeting of ferritin” (Dana-Farber Cancer Institute, Inc., priority 2014, dated 2019).

Holding throughout (assay type): binding
Experiment [1] has as its target T1, ferritin purified from horse spleen (mixture of FTH1 and FTL subunits) (Equus caballus, UniProt Q8MIP0).
T1 construct: ferritin purified from horse spleen; purchased Sigma A3641-100 mg; host or cells: horse spleen
Put plainly: anti-MYC immunoprecipitation of in vitro translated MYC-NCOA4 constructs incubated with ferritin. The note with it: anti-MYC IP, anti-FTH1 immunoblot, FIG. 5. On the procedure: To probe the interaction between ferritin and NCOA4, initial binding assays using MYC-tagged NCOA4 full-length and truncation constructs produced using an in vitro translation (“IVT”) system were conducted. MYC-NCOA4 fragments were cloned using PCR into a modified T7 cell-free expression vector (pT7CFE1-NMyc, #88863, Thermo Scientific). 1-Step Human Coupled IVT Kit—DNA from Thermo Scientific (product #88881) was used to produce MYC-tagged NCOA4 constructs as described in the product manual. Apoferritin (Sigma, A3641-100 mg) was added in a pull-down assay using anti-c-Myc Agarose Affinity Gel antibody produced in rabbit (Sigma, A7470-1 ML). Affinity purification reactions were washed thoroughly with 150 mM NaCl, 20 mM Tris (pH 7.4), and 2 mM dithiothreitol. Proteins were eluted with SDS sample buffer and analyzed by 4-20% gradient SDS-PAGE and immunoblotting with anti-FTH1 antibody (Cell Signaling 3998; Western blot 1:1,000) or anti-MYC antibody (Santa Cruz Sc-40; western blot 1:1,000).
The full-length, N-terminal (amino acids (aa) 1-245 of SEQ ID NO: 4) and C-terminal (aa 235-614 of SEQ ID NO:4) MYC-NCOA4 were incubated with ferritin purified from horse spleen (Apoferritin (Sigma, A3641-100 mg), consisting of a mixture of FTH1 and FTL subunits) and anti-MYC immunoprecipitation was performed followed by immunoblotting as described above.

Experiment [2] concerns the target T2, apo-ferritin purified from equine spleen (Equus caballus, UniProt Q8MIP0).
T2 construct: apo-ferritin purified from equine spleen; purchased Sigma F4503; host or cells: equine spleen
Put plainly: GST pull-down assay of ferritin using GST-NCOA4 fragments. As to conditions: anti-FTH1 immunoblot, FIGS. 7, 8, 11. The source says:
GST-tagged NCOA4 constructs were also made to probe the interactions of C-terminal portions of NCOA4 with ferritin. NCOA4-truncation constructs were produced using Gateway cloning (Invitrogen, Life Technologies, catalog #11789-013 and 11791-019) into a pDEST60 N-terminal GST fusion plasmid (GST-NCOA4) from EMD Millipore (Gateway Nova pET-60-DEST, product #71851-3) and transformed in E. coli BL21 (DE3) cells (New England Biosciences, C2527I).
NCOA4 truncation constructs were designed based on NCBI reference sequence: NP_001138735.1 (SEQ ID NO: 4). In particular, fragments of SEQ ID NO: 4 consisting of amino acids (aa) 1-245, aa 235-614, aa 235-560, aa 235-401, aa 383-560, aa 545-614, aa 383-522, aa 510-560, aa 383-436, aa 436-485, aa 475-522, aa 475-500, aa 480-500, aa 480-504, aa 485-509, aa 490-514, aa 495-522 were designed. Protein expression in the DE3 cells was induced with 1 mM isopropyl-beta-D-thiogalactopyranoside (IPTG) (Sigma, I6758-10 G) for 3 hours at 37° C. Cells were collected by centrifugation, re-suspended in 25 mM Tris-HCl (pH 7.4), 10% (w/v) sucrose and lysed with a single freeze-thaw cycle followed by sonication. After centrifugation, a GST pull-down assay was performed.
(§1) In the GST pull-down assay, lysates were incubated with 10 μl of a 50% (v/v) slurry of glutathione Sepharose 4B beads (GE Healthcare Lifesciences, 17-0756-01) for 30 minutes at 4° C. Beads were washed thoroughly with 150 mM NaCl, 20 mM Tris (pH 7.4), 2 mM dithiothreitol (DTT), 0.5% (w/v) Nonidet P-40, leaving 50-100 μg of GST-fusion protein bound to the beads. Beads were then mixed with 0.5-2 μg of apo-ferritin purified from equine spleen (Sigma F4503) or recombinant human FTH1 or FTL produced in Rosetta E. coli (EMD Millipore, 70953-3). The assay mix was incubated for 2 hours at 4° C., and beads were washed four times with 1 ml wash buffer. Proteins were eluted with SDS sample buffer and analyzed by 4-20% gradient SDS-PAGE and immunoblotting with anti-FTH1 antibody (as above) or anti-FLAG antibody (Sigma, F1804-200 UG). Pounceau stain was used to visualize GST-NCOA4 bands. (Pounceau, Sigma, P7170-1 L, protocol as per product manual).

Experiment [3] concerns the target T3, recombinant human FTH1 (Homo sapiens, UniProt P02794).
T3 construct: made in house; host or cells: Rosetta E. coli (EMD Millipore, 70953-3)
As to the kind of experiment: GST pull-down assay of recombinant FTH1 using GST-NCOA4. As to conditions: recombinant FTH1 from E. coli, 0.2 μg and 1 μg, FIG. 10A. On the procedure:
as §1
(§2) To understand if there was subunit specificity for NCOA4 binding to ferritin, the NCOA4 C-terminus (aa 235-614) fusion protein was immobilized on glutathione Sepharose beads, as described in Example 1. Recombinant purified FTH1 or FTL produced in E. coli was added at concentrations of 0.2 μg and 1 μg, and binding was determined using the GST pull-down assay described in Example 1, above.

Experiment [4] concerns the target T4, recombinant human FTL (Homo sapiens, UniProt P02792).
T4 construct: made in house; host or cells: Rosetta E. coli (EMD Millipore, 70953-3)
As to the kind of experiment: GST pull-down assay of recombinant FTL using GST-NCOA4. As to conditions: recombinant FTL from E. coli, 0.2 μg and 1 μg; FIG. 10B; listed as GST-NCOA4 fragment. As for the experimental part:
as §1, §2

T1 sequence (Q8MIP0 whole entry): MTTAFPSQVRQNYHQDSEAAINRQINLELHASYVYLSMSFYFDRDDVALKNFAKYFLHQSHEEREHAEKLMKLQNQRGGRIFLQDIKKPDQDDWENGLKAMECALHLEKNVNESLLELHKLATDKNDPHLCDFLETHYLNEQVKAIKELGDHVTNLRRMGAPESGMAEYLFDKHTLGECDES
T1 sequence (P02791 2-175 partner limits assumed): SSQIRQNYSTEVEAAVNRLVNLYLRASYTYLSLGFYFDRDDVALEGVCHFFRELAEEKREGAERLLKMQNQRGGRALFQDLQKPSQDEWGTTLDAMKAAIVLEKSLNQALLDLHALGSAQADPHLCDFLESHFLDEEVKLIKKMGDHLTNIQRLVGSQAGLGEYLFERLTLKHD
T3 sequence (P02794 whole entry): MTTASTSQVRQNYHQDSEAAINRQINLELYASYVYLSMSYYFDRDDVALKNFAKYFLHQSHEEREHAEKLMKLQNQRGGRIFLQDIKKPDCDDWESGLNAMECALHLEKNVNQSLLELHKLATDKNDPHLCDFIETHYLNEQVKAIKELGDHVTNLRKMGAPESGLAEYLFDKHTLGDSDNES
T2 sequence (Q8MIP0 whole entry): as the sequence (Q8MIP0 whole entry) above
T2 sequence (P02791 2-175 partner limits assumed): as the sequence (P02791 2-175 partner limits assumed) above
T4 sequence (P02792 whole entry): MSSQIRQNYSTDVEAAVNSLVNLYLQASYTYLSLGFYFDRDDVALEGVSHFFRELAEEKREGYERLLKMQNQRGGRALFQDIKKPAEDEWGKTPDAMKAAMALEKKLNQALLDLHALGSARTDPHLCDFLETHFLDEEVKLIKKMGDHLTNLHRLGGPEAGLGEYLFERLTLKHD

B1: aa 235-614: NCOA4 C-terminal fragment, amino acids 235-614 of SEQ ID NO: 4 (protein)
chain: ENSQTSSRACNFFNNVGGNLKGLENWLLKSEKSSYQKCNSHSTTSSFSIEMEKVGDQELPDQDEMDLSDWLVTPQESHKLRKPENGSRETSEKFKLLFQSYNVNDWLVKTDSCTNCQGNQPKGVEIENLGNLKCLNDHLEAKKPLSTPSMVTEDWLVQNHQDPCKVEEVCRANEPCTSFAECVCDENCEKEALYKWLLKKEGKDKNGMPVEPKPEPEKHKDSLNMWLCPRKEVIEQTKAPKAMTPSRIADSFQVIKNSPLSEWLIRPPYKEGSPKEVPGTEDRAGKQKFKSPMNTSWCSFNTADWVLPGKKMGNLSQLSSGEDKWLLRKKAQEVLLNSPLQEEHNFPPDHYGLPAVCDLFACMQLKVDKEKWLYRTPLQM
modifications: Homo sapien
B1: the “association of MYC-NCOA4 construct with ferritin” value in experiment [1] was “associated with ferritin”; in experiment [1] (listed as C-terminal NCOA4), “bind to ferritin”. The “binding of GST-NCOA4 fragment to ferritin” value in experiment [2] is “bound to ferritin”. Also, the entries for the “binding of GST-NCOA4 to FTH1” value in experiment [3] (listed as GST-NCOA4 fragment) and in experiment [3] (listed as NCOA4 C-terminus) were “binds to FTH1” and “interacted with the NCOA4 C-terminus”, respectively. Further, in experiment [4], the “binding of GST-NCOA4 to FTL” value is listed as “binds minimally to FTL”.
